Data: patent US20120288536

Biological target: pSTAT3 (tyrosine-phosphorylated STAT3) (UniProt P40763)
Test: SPR
Details: PS x3 at 5' end of sense and 3' end of antisense; strands linked at one end by C-18 (18-atom hexa-ethyleneglycol) spacers; Langmuir 1:1, 4 C, 20 mM HEPES pH 7.0, 200 mM NaCl, 10 mM MgCl2

Chain of pSTAT3 (tyrosine-phosphorylated STAT3) (P40763 whole entry): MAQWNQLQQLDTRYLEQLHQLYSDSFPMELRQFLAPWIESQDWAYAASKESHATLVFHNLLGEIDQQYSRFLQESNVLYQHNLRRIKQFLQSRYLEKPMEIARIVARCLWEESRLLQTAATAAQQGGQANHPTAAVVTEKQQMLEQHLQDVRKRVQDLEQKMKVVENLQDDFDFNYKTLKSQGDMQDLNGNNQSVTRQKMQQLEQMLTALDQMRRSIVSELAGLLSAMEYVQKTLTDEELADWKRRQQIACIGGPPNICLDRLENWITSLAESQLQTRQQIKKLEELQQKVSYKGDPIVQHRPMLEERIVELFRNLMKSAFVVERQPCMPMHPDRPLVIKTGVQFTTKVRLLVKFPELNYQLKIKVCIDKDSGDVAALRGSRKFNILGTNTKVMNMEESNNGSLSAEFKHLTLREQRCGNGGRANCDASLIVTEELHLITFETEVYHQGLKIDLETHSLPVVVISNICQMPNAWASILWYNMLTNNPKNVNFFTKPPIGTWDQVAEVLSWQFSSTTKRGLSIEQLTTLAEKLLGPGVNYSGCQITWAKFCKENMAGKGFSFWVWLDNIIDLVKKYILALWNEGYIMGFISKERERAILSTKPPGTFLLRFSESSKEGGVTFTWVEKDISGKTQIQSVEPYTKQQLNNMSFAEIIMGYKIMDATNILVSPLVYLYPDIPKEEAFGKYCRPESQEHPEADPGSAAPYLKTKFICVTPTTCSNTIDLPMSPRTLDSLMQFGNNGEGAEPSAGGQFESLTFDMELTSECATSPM

Question: Which Kd does the source give for CATTTCCCGTAAATC (double strand) [DS18] here?
Answer: 142 nM
